# Measured values taken from US20230002496A1 (STAIDSON BEIJING BIOPHARMACEUTICALS, published 2023).
# T1: human GM-CSFRα, full length on cells (human, UniProt P15509 23-400)
# T1 sequence: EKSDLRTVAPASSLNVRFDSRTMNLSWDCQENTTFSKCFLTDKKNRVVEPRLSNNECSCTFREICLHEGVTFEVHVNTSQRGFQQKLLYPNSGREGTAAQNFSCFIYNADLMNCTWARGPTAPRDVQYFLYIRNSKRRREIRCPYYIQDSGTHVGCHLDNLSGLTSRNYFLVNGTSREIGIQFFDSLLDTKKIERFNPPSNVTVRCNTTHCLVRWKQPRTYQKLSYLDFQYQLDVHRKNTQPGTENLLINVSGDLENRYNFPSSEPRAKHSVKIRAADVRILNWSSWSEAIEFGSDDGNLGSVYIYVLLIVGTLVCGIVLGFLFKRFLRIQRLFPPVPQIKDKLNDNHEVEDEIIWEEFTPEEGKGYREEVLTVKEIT
# Target: T1, human GM-CSFRα, full length on cells
# Experiment: cell-based or functional assay
row,Binder,"IC50, TF-1 cell proliferation [µg/mL]"
1,"E35-scFv HE31R (scFv, V domains shown) VH: QMQLVQSGAEVKKPGASVKVSCKVSGYTLTRLSIHWVRQAPGKGLEWMGGFDPEDGETIYAQKFQGRVTMTGDTSTDTAYLELSSLRSEDTALYYCATGRYTSLATTYGFDYWGQGTLVTVSS VL: EIVMTQSPATLSLSPGERATLSCRASQSVSSYLAWYQQKPGQAPRLLIYGASSRATGIPDRFSGSGSGTDFTLTISRLEPEDFAVYYCQQYDNWPYTFGQGTKLEIK",0.31
2,"E35-scFv HT30D (scFv, V domains shown) VH: QMQLVQSGAEVKKPGASVKVSCKVSGYTLDELSIHWVRQAPGKGLEWMGGFDPEDGETIYAQKFQGRVTMTGDTSTDTAYLELSSLRSEDTALYYCATGRYTSLATTYGFDYWGQGTLVTVSS VL: EIVMTQSPATLSLSPGERATLSCRASQSVSSYLAWYQQKPGQAPRLLIYGASSRATGIPDRFSGSGSGTDFTLTISRLEPEDFAVYYCQQYDNWPYTFGQGTKLEIK",0.132
3,"E35-scFv HT30N (scFv, V domains shown) VH: QMQLVQSGAEVKKPGASVKVSCKVSGYTLNELSIHWVRQAPGKGLEWMGGFDPEDGETIYAQKFQGRVTMTGDTSTDTAYLELSSLRSEDTALYYCATGRYTSLATTYGFDYWGQGTLVTVSS VL: EIVMTQSPATLSLSPGERATLSCRASQSVSSYLAWYQQKPGQAPRLLIYGASSRATGIPDRFSGSGSGTDFTLTISRLEPEDFAVYYCQQYDNWPYTFGQGTKLEIK",0.178
4,"E35-scFv HT30E (scFv, V domains shown) VH: QMQLVQSGAEVKKPGASVKVSCKVSGYTLEELSIHWVRQAPGKGLEWMGGFDPEDGETIYAQKFQGRVTMTGDTSTDTAYLELSSLRSEDTALYYCATGRYTSLATTYGFDYWGQGTLVTVSS VL: EIVMTQSPATLSLSPGERATLSCRASQSVSSYLAWYQQKPGQAPRLLIYGASSRATGIPDRFSGSGSGTDFTLTISRLEPEDFAVYYCQQYDNWPYTFGQGTKLEIK",0.132
5,"E35-scFv HE31C (scFv, V domains shown) VH: QMQLVQSGAEVKKPGASVKVSCKVSGYTLTCLSIHWVRQAPGKGLEWMGGFDPEDGETIYAQKFQGRVTMTGDTSTDTAYLELSSLRSEDTALYYCATGRYTSLATTYGFDYWGQGTLVTVSS VL: EIVMTQSPATLSLSPGERATLSCRASQSVSSYLAWYQQKPGQAPRLLIYGASSRATGIPDRFSGSGSGTDFTLTISRLEPEDFAVYYCQQYDNWPYTFGQGTKLEIK",0.36
6,"E35-scFv HT28H (scFv, V domains shown) VH: QMQLVQSGAEVKKPGASVKVSCKVSGYHLTELSIHWVRQAPGKGLEWMGGFDPEDGETIYAQKFQGRVTMTGDTSTDTAYLELSSLRSEDTALYYCATGRYTSLATTYGFDYWGQGTLVTVSS VL: EIVMTQSPATLSLSPGERATLSCRASQSVSSYLAWYQQKPGQAPRLLIYGASSRATGIPDRFSGSGSGTDFTLTISRLEPEDFAVYYCQQYDNWPYTFGQGTKLEIK",0.06
7,"E35-scFv HT30K (scFv, V domains shown) VH: QMQLVQSGAEVKKPGASVKVSCKVSGYTLKELSIHWVRQAPGKGLEWMGGFDPEDGETIYAQKFQGRVTMTGDTSTDTAYLELSSLRSEDTALYYCATGRYTSLATTYGFDYWGQGTLVTVSS VL: EIVMTQSPATLSLSPGERATLSCRASQSVSSYLAWYQQKPGQAPRLLIYGASSRATGIPDRFSGSGSGTDFTLTISRLEPEDFAVYYCQQYDNWPYTFGQGTKLEIK",0.325
8,"E35-scFv HT30A (scFv, V domains shown) VH: QMQLVQSGAEVKKPGASVKVSCKVSGYTLAELSIHWVRQAPGKGLEWMGGFDPEDGETIYAQKFQGRVTMTGDTSTDTAYLELSSLRSEDTALYYCATGRYTSLATTYGFDYWGQGTLVTVSS VL: EIVMTQSPATLSLSPGERATLSCRASQSVSSYLAWYQQKPGQAPRLLIYGASSRATGIPDRFSGSGSGTDFTLTISRLEPEDFAVYYCQQYDNWPYTFGQGTKLEIK",0.215
9,"E35-scFv HT28E (scFv, V domains shown) VH: QMQLVQSGAEVKKPGASVKVSCKVSGYELTELSIHWVRQAPGKGLEWMGGFDPEDGETIYAQKFQGRVTMTGDTSTDTAYLELSSLRSEDTALYYCATGRYTSLATTYGFDYWGQGTLVTVSS VL: EIVMTQSPATLSLSPGERATLSCRASQSVSSYLAWYQQKPGQAPRLLIYGASSRATGIPDRFSGSGSGTDFTLTISRLEPEDFAVYYCQQYDNWPYTFGQGTKLEIK",0.091
10,"E35-scFv HT28V (scFv, V domains shown) VH: QMQLVQSGAEVKKPGASVKVSCKVSGYVLTELSIHWVRQAPGKGLEWMGGFDPEDGETIYAQKFQGRVTMTGDTSTDTAYLELSSLRSEDTALYYCATGRYTSLATTYGFDYWGQGTLVTVSS VL: EIVMTQSPATLSLSPGERATLSCRASQSVSSYLAWYQQKPGQAPRLLIYGASSRATGIPDRFSGSGSGTDFTLTISRLEPEDFAVYYCQQYDNWPYTFGQGTKLEIK",0.08
11,"E35-scFv HT30L (scFv, V domains shown) VH: QMQLVQSGAEVKKPGASVKVSCKVSGYTLLELSIHWVRQAPGKGLEWMGGFDPEDGETIYAQKFQGRVTMTGDTSTDTAYLELSSLRSEDTALYYCATGRYTSLATTYGFDYWGQGTLVTVSS VL: EIVMTQSPATLSLSPGERATLSCRASQSVSSYLAWYQQKPGQAPRLLIYGASSRATGIPDRFSGSGSGTDFTLTISRLEPEDFAVYYCQQYDNWPYTFGQGTKLEIK",0.181
12,"E35-scFv HT30G (scFv, V domains shown) VH: QMQLVQSGAEVKKPGASVKVSCKVSGYTLGELSIHWVRQAPGKGLEWMGGFDPEDGETIYAQKFQGRVTMTGDTSTDTAYLELSSLRSEDTALYYCATGRYTSLATTYGFDYWGQGTLVTVSS VL: EIVMTQSPATLSLSPGERATLSCRASQSVSSYLAWYQQKPGQAPRLLIYGASSRATGIPDRFSGSGSGTDFTLTISRLEPEDFAVYYCQQYDNWPYTFGQGTKLEIK",0.199
13,"E35-scFv HT30M (scFv, V domains shown) VH: QMQLVQSGAEVKKPGASVKVSCKVSGYTLMELSIHWVRQAPGKGLEWMGGFDPEDGETIYAQKFQGRVTMTGDTSTDTAYLELSSLRSEDTALYYCATGRYTSLATTYGFDYWGQGTLVTVSS VL: EIVMTQSPATLSLSPGERATLSCRASQSVSSYLAWYQQKPGQAPRLLIYGASSRATGIPDRFSGSGSGTDFTLTISRLEPEDFAVYYCQQYDNWPYTFGQGTKLEIK",0.174

# Results, then the binder that gave them:
row,"IC50, TF-1 cell proliferation [µg/mL]",Binder
1,0.35,"E35-scFv HT30R (scFv, V domains shown) VH: QMQLVQSGAEVKKPGASVKVSCKVSGYTLRELSIHWVRQAPGKGLEWMGGFDPEDGETIYAQKFQGRVTMTGDTSTDTAYLELSSLRSEDTALYYCATGRYTSLATTYGFDYWGQGTLVTVSS VL: EIVMTQSPATLSLSPGERATLSCRASQSVSSYLAWYQQKPGQAPRLLIYGASSRATGIPDRFSGSGSGTDFTLTISRLEPEDFAVYYCQQYDNWPYTFGQGTKLEIK"
2,0.158,"E35-scFv HT30V (scFv, V domains shown) VH: QMQLVQSGAEVKKPGASVKVSCKVSGYTLVELSIHWVRQAPGKGLEWMGGFDPEDGETIYAQKFQGRVTMTGDTSTDTAYLELSSLRSEDTALYYCATGRYTSLATTYGFDYWGQGTLVTVSS VL: EIVMTQSPATLSLSPGERATLSCRASQSVSSYLAWYQQKPGQAPRLLIYGASSRATGIPDRFSGSGSGTDFTLTISRLEPEDFAVYYCQQYDNWPYTFGQGTKLEIK"
3,0.151,"E35-scFv HT30W (scFv, V domains shown) VH: QMQLVQSGAEVKKPGASVKVSCKVSGYTLWELSIHWVRQAPGKGLEWMGGFDPEDGETIYAQKFQGRVTMTGDTSTDTAYLELSSLRSEDTALYYCATGRYTSLATTYGFDYWGQGTLVTVSS VL: EIVMTQSPATLSLSPGERATLSCRASQSVSSYLAWYQQKPGQAPRLLIYGASSRATGIPDRFSGSGSGTDFTLTISRLEPEDFAVYYCQQYDNWPYTFGQGTKLEIK"
4,0.192,"E35-scFv HT30Q (scFv, V domains shown) VH: QMQLVQSGAEVKKPGASVKVSCKVSGYTLQELSIHWVRQAPGKGLEWMGGFDPEDGETIYAQKFQGRVTMTGDTSTDTAYLELSSLRSEDTALYYCATGRYTSLATTYGFDYWGQGTLVTVSS VL: EIVMTQSPATLSLSPGERATLSCRASQSVSSYLAWYQQKPGQAPRLLIYGASSRATGIPDRFSGSGSGTDFTLTISRLEPEDFAVYYCQQYDNWPYTFGQGTKLEIK"
5,0.142,"E35-scFv HT30Y (scFv, V domains shown) VH: QMQLVQSGAEVKKPGASVKVSCKVSGYTLYELSIHWVRQAPGKGLEWMGGFDPEDGETIYAQKFQGRVTMTGDTSTDTAYLELSSLRSEDTALYYCATGRYTSLATTYGFDYWGQGTLVTVSS VL: EIVMTQSPATLSLSPGERATLSCRASQSVSSYLAWYQQKPGQAPRLLIYGASSRATGIPDRFSGSGSGTDFTLTISRLEPEDFAVYYCQQYDNWPYTFGQGTKLEIK"
6,0.213,"E35-scFv HT30S (scFv, V domains shown) VH: QMQLVQSGAEVKKPGASVKVSCKVSGYTLSELSIHWVRQAPGKGLEWMGGFDPEDGETIYAQKFQGRVTMTGDTSTDTAYLELSSLRSEDTALYYCATGRYTSLATTYGFDYWGQGTLVTVSS VL: EIVMTQSPATLSLSPGERATLSCRASQSVSSYLAWYQQKPGQAPRLLIYGASSRATGIPDRFSGSGSGTDFTLTISRLEPEDFAVYYCQQYDNWPYTFGQGTKLEIK"
7,0.126,"E35-scFv HT30P (scFv, V domains shown) VH: QMQLVQSGAEVKKPGASVKVSCKVSGYTLPELSIHWVRQAPGKGLEWMGGFDPEDGETIYAQKFQGRVTMTGDTSTDTAYLELSSLRSEDTALYYCATGRYTSLATTYGFDYWGQGTLVTVSS VL: EIVMTQSPATLSLSPGERATLSCRASQSVSSYLAWYQQKPGQAPRLLIYGASSRATGIPDRFSGSGSGTDFTLTISRLEPEDFAVYYCQQYDNWPYTFGQGTKLEIK"
